In paper PMC9129042 (PLoS ONE, 2022):

Target: WA-1 NTD probe (SARS-CoV-2 WA-1, UniProt P0DTC2, biotin on the AVI tag (…))
Assay: BLI
Conditions: both partners purified

B1: 5–7 (antibody, V domains shown)
VH: QVQLVQSGAEVKKPGASVKVSCKASGYTFTSYYMHWVRQAPGQGLEWMGVINPSGGSTSYAEKFRGRVTMTRDTSTSTVYMELSSLRSEDTAVYYCARDREPHSDSSGYWDSLKYYYYYALDVWGQGTTVTVSS
VL: AIQLTQSPSSLSASVGDRVTITCRASQGISSYLAWYQQKPGKAPELLIYAASTLQSGVPSRFSGSGSGTDFTLTISSLQPEDFATYYCQQLNTYPFTFGPGTKVDIK
notes: also called antibody 5-7
B1: binds.
